B1: Y558I: RcSxph mutant, isoleucine for tyrosine at position 558 (protein)
chain: MAPTFQTALFFTIISLSFAAPNAKQVRWCAISDLEQKKCNDLVGSCNVPDITLVCVLRSSTEDCMTAIKDGQADAMFLDSGEVYEASKDPYNLKPIIAEPYSSNRDLQKCLKERQQALAKKMIGHYIPQCDEKGNYQPQQCHGSTGHCWCVNAMGEKISGTNTPPGQTRATCERHELPKCLKERQVALGGDEKVLGRFVPQCDEKGNYEPQQFHGSTGYSWCVNAIGEEIAGTKTPPGKIPATCQKHDLVTTCHYAVAMVKKSSAFQFNQLKGKRSCHSGVSKTDGWKALVTVLVEKKLLSWDGPAKESIQRAMSKFFSVSCIPGATQTNLCKQCKGEEGKNCKNSHDEPYYGNYGAFRCLKEDMGDVAFLRSTALSDEHSEVYELLCPDNTRKPLNKYKECNLGTVPAGTVVTRKISDKTEDINNFLMEAQKRQCKLFSSAHGKDLMFDDSTLQLALLSSEVDAFLYLGVKLFHAMKALTGDAHLPSKNKVRWCTINKLEKMKCDDWSAVSGGAIACTEASCPKGCVKQILKGEADAVKLEVQYMYEALMCGLLPAVEEYHNKDDFGPCKTPGSPITDFGTLRAVALVKKSNKDINWNNIKGKKSCHTGVGDIAGWVIPVSLIRRQNDNSDIDSFFGESCAPGSDTKSNLCKLCIGDPKNSAANTKCSLSDKEAYYGNQGAFRCLVEKGDVAFVPHTVVFENTDGKNPAVWAKNLKSEDFELLCLDGSRAPVSNYKSCKLSGIPPPAIVTREESISDVVRIVANQQSLYGRKGFEKDMFQLFSSNKGNNLLFNDNTQCLITFDRQPKDIMEDYFGKPYYTTVYGASRSAMSSELISACTIKHC
B2: NpSxph: Saxiphilin of Nanorana parkeri, High Himalaya frog, SEQ ID NO:2 (protein, listed as Nanorana parkeri)
chain: MALTFHTALYFTIVGLSFAASDARHVQWCTISHLEQKKCNDLVGSCNVPDITLACVYRSSTENCMAAIKDGQADAMFLDSGDVYKASLDHYNLKPIIAEPYSLHRELTKCLKHRQESLGGDKMVKGRYIPQCDEKGNYHPVQCHASTGYCWCVNANGEKIEGTNTTPVQTPPTCPSQVLTKCLKERQEALGGKRIAIGRYIPQCDEQGNYRPMQCHGSTGYCWCVNAIGEKIEGTNTPPGNTQPTCQSHDWDTCHYAVAVVKNSSTFQFGQLKGKRSCHSGLSKTDGWNAPVNVFVEKKLLPWDGLAKGSIERAVSKFFSASCIPGATETNLCKQCIGEEEKKCKSSHDEPYYGDHGAFRCLQEDKGDVAFLKNTALPDEHSGVYELLCPDNTRKPLNKYKECNLGKVPADAVVTRKAGDKTKDINDFLLEAQKKKCKLFGSPHGKDLMFDDSTTHLAPLPSEIDAFFFLGVKWYNAMKALTEDVKLPSKNKVRWCTINKPEMMKCKDWAAVSGGAIACTEASCPEHCVKQILKGEADAVTLDVQYMYMALMCGLLPAVEEYPNKDDFHPCQIPGSTIKDFGTKRAVALVKKSNKDIKWNNLKGKKSCHTHVGDIPGWVIPAGLISNQNDNIDIESFFGESCAPGSDTNSKLCKLCIGDPENPKASTRCSLSDKEAYYGNEGAFRCLVEKGDVAFVPHTVVFANTDGKNPAEWAKDLKSEDFEILCLDGSRAPVTNYRGCNLSGLPPRAIVTREESVSDVVRILINQQSLYGRNGFEKDMFQMFSSAKGQNLLFNDETQCLIEFDRQPKDIMEDYFGVRYYTAVYSASRSAVPSELIPACTFKHC
B3: OsSxph: Saxiphilin of Oophaga sylvatica, Little devil poison frog, SEQ ID NO:5 (protein, listed as Oophaga sylvatica)
chain: MRMTLQVLLCLCLLVLSSAAPNSRNVRWCVTSDTEEQKCNDLVTSCHVDEILLICVKKSSKEDCVRAISNGEADAISLDSKDVYKASLDPFNLKPIMTEAYSESEQTPCMRHRQSVLGGKKMIIGAFVPKCDEKGNYVPKQCHDSTGFCWCLNENGEEIEGTRTPPGNSGLTCENKANKPPCLKERQKLLSAKPSPAVFVPECDEKGNYRPEQSHVYSWCVDEYGEEVLGSRTFPGKPPKPCEASGETPCIKERNKVLSAAEPLPGAFVPDCDEKGYFSPLQFHGSTGHSWCVTKNGEEIKGTRTRPGQTPPTCDVPAPATLHYAVAVVKKSSSFQLDQLKGKRSCHSAVGEAAGWVAPLNVLLKKKFLLWEEPEQKSTEKVASEIFSASCAAGAQEANLCEQCAGQEDKCTRGPGEPYYGDEGAIRCLRDDKGDVAFVEDTALTGQYSDNFELLCPDNTRRPLSQYKICNFGSVPRHAVVTRSTGDKMKEITEYLLQAQKKECKLFSSTHGKDLLFEDTTSALIALPSGMDTFLFLGPDLFNGMKTLNGAHPPRVKQKIRWCPQNKNEKKKCDDWSSVSGGSIKCTEPSSALECIKMILKDEADAVNLDAEHAYTALKCGLLPSLEEYRNKDDLIVCQIPGAEYSEFGSYRIVALVKKTDKDITWNNLQGKKSCHTHVGDMIGWNIPVYLISKKTKNCDLGSYFSQSCAPGSPIDSNLCKLCIGDPQNTEANTKCSLSDKEAYYGNEGAVRCLVETGDVAFVPHTAVFENTDGKNPALWAKDLKSTDFELLCPDGSRAPVSDYKKCKLSGIANHVTVTRPESVKDVVRITQNQESLYGRTGSQKDIFQMFSSSYGQNLLFNDRTQCLFEFDRMLDRDIMDDYLGKPFHKHLMSDNDCLPKSALATACSFHH
B4: D785N: RcSxph mutant D785N (protein)
chain: B1 chain with I577Y, D804N
B5: D794A: RcSxph mutant D794A (protein)
chain: B1 chain with I577Y, D813A
B6: Y558A: RcSxph mutant, alanine for tyrosine at position 558 (protein)
chain: B1 chain with I577A
B7: D794E: RcSxph mutant D794E (protein)
chain: B1 chain with I577Y, D813E
B8: F561A: RcSxph mutant F561A (protein)
chain: B1 chain with I577Y, F580A
B9: E540D: RcSxph mutant E540D (protein)
chain: B1 chain with E559D, I577Y

Residue numbers refer to the chain shown, from its start. Names may count otherwise.

The test system of the first data set is PtNaV1.4. Kind of data set: Two-electrode voltage clamp: Sxph rescue of PtNaV1.4 from STX block in Xenopus oocytes. To be noted: [Sxph]:[STX] ratio, 100 nM STX. It is filed as cell-based, Phyllobates terribilis. On the technique in general: Two-electrode voltage clamp is typically applied to oocytes expressing channels or transporters.
As for B1, the “Effective Rescue Ratio50 (ERR50)” value was 0.81±0.01.

System in another data set: not listed separately
Kind of data set: Fluorescence polarization (FP) binding to fluorescein labeled STX. To be noted: […]G = RT ln (Kd(XSxph)/Kd(RcSxph)); T = 298K. On the procedure:
[…]; Measurements were performed at 25° C. on a Synergy H1 microplate reader (BioTek) using the polarization filter setting (excitation 485 nm, emission 528 nm). […]. The dissociation constants were calculated using GraphPad Prism by fitting fluorescence millipolarization (mP=P·10^−3, where P is polarization) as a function of Sxph concentration using the equation: P={(Pbound−Pfree) [Sxph]/(Kd+[Sxph])}+Pfree, where P is the polarization measured at a given Sxph concentration, Pfree is the […], and Pbound is the maximum polarization of Sxph bound by F-STX (Rossi and Taylor, Hansen et al.).
In general terms: Polarisation of emitted light reports the rotation of a fluorescent probe.
In the case of B2, the “[…]G (kcal mol^−1) relative to RcSxph” value was -1.60 kcal/mol.
Still for that read-out and setting: under B3 stands -1.32 kcal/mol.

Staying with this data set, now noted: […]G = RT ln (KdSxph mutant/KdSxph); T = 298K.
Regarding B4, the “[…]G (kcal mol^−1) relative to wild-type RcSxph” value is -0.30 kcal/mol.
Same read-out and setting: under B1 stands -1.07 kcal/mol; under B5, 4.43 kcal/mol; under B6, -1.00 kcal/mol.
Turning to B7, the “[…]G (kcal mol^−1) relative to wild-type RcSxph” value came to 2.94 kcal/mol.
Consider B8, for which the “[…]G (kcal mol^−1) relative to wild-type RcSxph” value was determined as 0.48 kcal/mol.
Consider B9, for which the “[…]G (kcal mol^−1) relative to wild-type RcSxph” value amounted to 1.54 kcal/mol.

System in another data set: not listed separately
Kind of data set: Isothermal titration calorimetry (ITC) of STX into Sxph. It is filed as binding. As to conditions: 25° C. On the procedure:
ITC measurements were performed at 25° C. using a MicroCal PEAQ-ITC calorimeter (Malvern Panalytical). […]. This STX stock was diluted with the SEC buffer to prepare 100 μM or 300 μM STX solutions having a final buffer composition of 135 mM NaCl, 9 mM HEPES, pH 7.4. […]. The calorimetric experiment settings were: reference power, 5 μcal/s; spacing between injections, 150 s; stir speed 750 rpm; and feedback mode, high. Data were analyzed using MicroCal PEAQ-ITC Analysis Software (Malvern Panalytical) using a single binding site model. The heat of dilution from titrations of 100 μM STX in 135 mM NaCl, 9 mM HEPES, pH 7.4 into 135 mM NaCl, 9 mM HEPES, pH 7.4 was subtracted from each experiment to correct the baseline.
B2: the “[…]G” value is -11.8 ± 0.1 kcal/mol; the “[…]H (kcal mol^−1), binding enthalpy” value is -18.7 ± 0.2 kcal/mol; the “[…]S (cal mol^−1 K^−1)” value is −23.2 ± 0.8 cal mol^−1 K^−1.
Taken in the same sequence, the figures for B1 were -12.2 ± 0.3 kcal/mol, -15.5 ± 0.3 kcal/mol and −10.5 ± 0.6 cal mol^−1 K^−1.
On the same counts, the results for B6 are -12.2 ± 0.2 kcal/mol, -15.3 ± 0.0 kcal/mol and −11.1 ± 1.1 cal mol^−1 K^−1.
On the same counts, the results for B7 are -8.9 ± 0.1 kcal/mol, -11.8 ± 0.0 kcal/mol and −8.9 ± 0.1 cal mol^−1 K^−1.
For B8, the “[…]G” value is -10.8 ± 0.1 kcal/mol; the “[…]H (kcal mol^−1), binding enthalpy” value was -12.7 ± 0.2 kcal/mol; the “[…]S (cal mol^−1 K^−1)” value is recorded as −6.6 ± 0.9 cal mol^−1 K^−1.
On to B9, for which the “[…]G” value is -9.8 ± 0.1 kcal/mol; the “[…]H (kcal mol^−1), binding enthalpy” value is -16.3 ± 1.7 kcal/mol; the “[…]S (cal mol^−1 K^−1)” value is given as −21.9 ± 5.7 cal mol^−1 K^−1.

The same data set, now with this note: 25° C., listed as NpSxph WT.
Turning to B2, the “[…]H (kcal mol^−1), binding enthalpy” value was -18.7 ± 0.2 kcal/mol.

System in the next data set: not given
Experiment: not given
Format: binding. As to conditions: 1.1 μM Sxph, 0-20 μM STX.
B2: the “DTm ([…]Tm=TmSxph+20 μM toxin−TmSxph), STX” value stood at 3.6 °C.
Same read-out and setting: under B4 stands “DTm increases relative to wild-type”; under B5, “complete loss of the thermal shift”.
